Key:
[1] = substrate: NCC[C@H](N)C(=O)O; experiment: initial-velocity racemase assay, FDLA (Marfey) LC-MS; Lineweaver-Burk; format: biochemical, Streptoalloteichus hindustanus; conditions: L to D direction, no cofactor, 100 mM TAPS-NaOH pH 8.5, 30°C
Excerpt: (§1) initial-velocity racemase assay, FDLA (Marfey) LC-MS; Lineweaver-Burk on PddB

[2] = substrate: NCC[C@@H](N)C(=O)O; experiment: as above; format: biochemical, Streptoalloteichus hindustanus; conditions: D to L direction, no cofactor, 100 mM TAPS-NaOH pH 8.5, 30°C
Excerpt: as §1

B1: PddB (Streptoalloteichus hindustanus) (protein)
chain: MSDQHNQVLDSELTAFRERVVEGVRFDTLRFCIMHGDGNVIMIVDERLSGLAAESVTSTLARELCQSFTVPKVDGVAFVRPTVSPLRMTYFERDGTHAQMCGNALRCLTRYGVERGYLSTEDSVETDDGVKRVSFVDGEARAALGPGREYQQVRDNWYFAFSGLPHLVVVMDDLDAFNAVNVRVDGAKLAHDEELCRQLNHPEGLHVNYLHRGEDHIAIRTFEVGVEDETKACGTGVAATGYIAHRAWGMPYPLRVRVPGGVMTAEDGEHGLTISGVTGYLFTEDETPVANVFQRSVL
notes: full length, C-terminal His6 tag, pET-21b(+), E. coli Rosetta 2 (DE3), Ni-NTA; 33 kDa; monomer; C-terminal domain given as 163-295
Km [1]: 10.1 ± 1.9 mM | Vmax [1]: 210 µmol/min/mg | Vmax/Km [1]: 20800 µL/min/mg | kcat [1]: 116 ± 12 s⁻¹ | kcat/Km [1]: 11400 M⁻¹ s⁻¹ | Km [2]: 6.1 ± 1.0 mM | Vmax [2]: 136 µmol/min/mg | Vmax/Km [2]: 22200 µL/min/mg | kcat [2]: 75 ± 5 s⁻¹ | kcat/Km [2]: 12200 M⁻¹ s⁻¹
